According to publication PMC10053881 (Pharmaceutics, 2023):
Bridge positions count the residues as written; N and C are the ends. Square brackets hold non-standard residues; d marks the D form. Peptide text beside a SMILES is read from it. * marks the point of attachment. DOTA = O=C(O)CN1CCN(CC(=O)O)CCN(CC(=O)*)CCN(CC(=O)O)CC1; dPhe(4-NHCONH2) = NC(=O)Nc1ccc(C[C@@H](N)C(=O)O)cc1; Phe(4-Cl) = N[C@@H](Cc1ccc(Cl)cc1)C(=O)O

Assay: Biodistribution in SCID mice bearing twin HEK293-SST2R and wtHEK293 tumors
Conditions: male, mouse, iv, total radioactivity, mean ± sd, n = 4; for tissue uptake at 4 h: 4 h pi; for tissue uptake at 24 h: 24 h pi; for tissue uptake at 48 h: 48 h pi
Method: Freshly harvested HEK293-SST2R cells (1.2 × 10^7cells) and wtHEK293 cells (0.6 × 10^7 cells) were suspended in physiological saline (150 μL) and inoculated in the right and left flanks, respectively, of 43 male SCID mice (23.1 ± 1.6 g body weight, six weeks of age on arrival day; NCSR “Demokritos” Animal House, Athens, Greece). Mice were kept under aseptic conditions for 12–15 days and until palpable tumors (300–600 mg) were grown at the inoculation sites. […] Animals were euthanized at 4 and 24 h pi and immediately dissected. Blood samples, organs of interest and tumors were rapidly collected, weighed and counted in the gamma counter. […] Animals were euthanized at 4, 24 and 48 h pi and the procedure described above was followed. Biodistribution data were calculated with the aid of suitable standards of the administered dose as percent of the injected activity per gram tissue (%IA/g) with excel software (Microsoft Corporation, Redmond, Washington, […], USA). Results were provided as average ± sd values, n = 4 per time point, via the PRISM^TM 6.0 GraphPad software (San Diego, CA, USA). Statistical analysis was performed as previously described.

[1] = in vivo, Tu+ (HEK293-SST2R tumor) uptake, In-111 radioligands, iv 20–25 pmol
[2] = kidneys, Kidneys uptake, In-111 radioligands, iv 20–25 pmol
[3] = liver, Liver uptake, In-111 radioligands, iv 20–25 pmol
[4] = lungs, Lungs uptake, In-111 radioligands, iv 20–25 pmol
[5] = muscle, Muscle uptake, In-111 radioligands, iv 20–25 pmol
[6] = pancreas, Pancreas uptake, In-111 radioligands, iv 20–25 pmol
[7] = spleen, Spleen uptake, In-111 radioligands, iv 20–25 pmol
[8] = stomach, Stomach uptake, In-111 radioligands, iv 20–25 pmol
[9] = blood, 40 pmol, Blood uptake, Lu-177 radioligands, iv 40 pmol
[10] = femur, 40 pmol, Femur uptake, Lu-177 radioligands, iv 40 pmol
[11] = in vivo, 40 pmol, Tu+ (HEK293-SST2R tumor) uptake, Lu-177 radioligands, iv 40 pmol
[12] = in vivo, 40 pmol, Tu- (wtHEK293 tumor) uptake, Lu-177 radioligands, iv 40 pmol
[13] = intestines, 40 pmol, Intestines uptake, Lu-177 radioligands, iv 40 pmol
[14] = kidneys, 40 pmol, Kidneys uptake, Lu-177 radioligands, iv 40 pmol
[15] = liver, 40 pmol, Liver uptake, Lu-177 radioligands, iv 40 pmol
[16] = lungs, 40 pmol, Lungs uptake, Lu-177 radioligands, iv 40 pmol
[17] = muscle, 40 pmol, Muscle uptake, Lu-177 radioligands, iv 40 pmol
[18] = pancreas, 40 pmol, Pancreas uptake, Lu-177 radioligands, iv 40 pmol
[19] = spleen, 40 pmol, Spleen uptake, Lu-177 radioligands, iv 40 pmol
[20] = stomach, 40 pmol, Stomach uptake, Lu-177 radioligands, iv 40 pmol

In the case of C[C@@H](O)[C@@H]1NC(=O)[C@H](CCCCN)NC(=O)[C@@H](Cc2ccc(NC(N)=O)cc2)NC(=O)[C@H](Cc2ccc(O)cc2)NC(=O)[C@H](NC(=O)[C@H](Cc2ccc(Cl)cc2)NC(=O)CN2CCN(CC(=O)O)CCN(CC(=O)O)CCN(CC(=O)O)CC2)CSSC[C@@H](C(=O)N[C@H](Cc2ccc(O)cc2)C(N)=O)NC1=O [[^111In]In-DOTA-LM3, metal not drawn] ({DOTA}-[Phe(4-Cl)][dC]Y[dPhe(4-NHCONH2)]KTC[dY]-NH2; disulfide 2-7), the tissue uptake at 4 h [1] is reported as 36.4 ± 2.05 %ID/g, the tissue uptake at 24 h [1] is reported as 20.9 ± 3.02 %ID/g and the tissue uptake at 24 h (in vivo, Tu- (wtHEK293 tumor) uptake, In-111 radioligands, iv 20–25 pmol) is reported as 0.29 ± 0.01 %ID/g. It also gave a tissue uptake at 4 h [2] of 15.4 ± 0.58 %ID/g, a tissue uptake at 24 h [2] of 4.25 ± 0.77 %ID/g and a tissue uptake at 4 h [3] of 2.04 ± 0.25 %ID/g. For the same molecule, the tissue uptake at 24 h [3] was 0.58 ± 0.06 %ID/g, the tissue uptake at 4 h [4] was 3.14 ± 0.48 %ID/g and the tissue uptake at 24 h [4] was 0.59 ± 0.12 %ID/g. The tissue uptake at 4 h [5] was 0.08 ± 0.01 %ID/g, the tissue uptake at 24 h [5] was 0.04 ± 0.02 %ID/g and the tissue uptake at 4 h [6] was 9.94 ± 0.79 %ID/g. The tissue uptake at 24 h [6] was 1.2 ± 0.14 %ID/g, the tissue uptake at 4 h [7] was 0.46 ± 0.05 %ID/g and the tissue uptake at 24 h [7] was 0.27 ± 0.03 %ID/g. For the same molecule, the tissue uptake at 4 h [8] was 0.8 ± 0.17 %ID/g and the tissue uptake at 24 h [8] was 0.5 ± 0.09 %ID/g.

With C[C@@H](O)[C@@H]1NC(=O)[C@H](CCCCN)NC(=O)[C@@H](Cc2ccc(NC(N)=O)cc2)NC(=O)[C@H](Cc2ccc(O)cc2)NC(=O)[C@H](NC(=O)[C@H](Cc2ccc(Cl)cc2)NC(=O)CN2CCN(CC(=O)O)CCN(CC(=O)O)CCN(CC(=O)O)CC2)CSSC[C@@H](C(=O)N[C@H](Cc2ccc(O)cc2)C(N)=O)NC1=O [[^177Lu]Lu-DOTA-LM3, metal not drawn] ({DOTA}-[Phe(4-Cl)][dC]Y[dPhe(4-NHCONH2)]KTC[dY]-NH2; disulfide 2-7) the tissue uptake at 24 h [9] was 0.07 %ID/g, the tissue uptake at 48 h [9] was 0.06 ± 0.01 %ID/g and the tissue uptake at 4 h [10] was 1.56 ± 0.24 %ID/g. For the same molecule, the tissue uptake at 24 h [10] was 1.38 ± 0.18 %ID/g, the tissue uptake at 48 h [10] was 0.88 ± 0.05 %ID/g and the tissue uptake at 48 h (heart, 40 pmol, Heart uptake, Lu-177 radioligands, iv 40 pmol) was 0.13 ± 0.02 %ID/g. The tissue uptake at 4 h [11] was 45.5 ± 1.66 %ID/g, the tissue uptake at 24 h [11] was 37.6 ± 3.42 %ID/g and the tissue uptake at 48 h [11] was 18.8 ± 0.88 %ID/g. It also gave a tissue uptake at 4 h [12] of 1.66 ± 0.14 %ID/g, a tissue uptake at 24 h [12] of 1.53 ± 0.15 %ID/g and a tissue uptake at 48 h [12] of 0.75 ± 0.08 %ID/g. The tissue uptake at 4 h [13] was 2.71 ± 0.18 %ID/g, the tissue uptake at 24 h [13] was 1.52 ± 0.21 %ID/g and the tissue uptake at 48 h [13] was 0.78 ± 0.09 %ID/g. It also gave a tissue uptake at 4 h [14] of 11.5 ± 0.26 %ID/g, a tissue uptake at 24 h [14] of 5.14 ± 0.92 %ID/g and a tissue uptake at 48 h [14] of 2.47 ± 0.67 %ID/g. For the same molecule, the tissue uptake at 4 h [15] was 6.79 ± 0.84 %ID/g, the tissue uptake at 24 h [15] was 3.38 ± 0.89 %ID/g and the tissue uptake at 48 h [15] was 1.47 ± 0.05 %ID/g. The tissue uptake at 4 h [16] was 15.7 ± 1.2 %ID/g, the tissue uptake at 24 h [16] was 8.88 ± 0.26 %ID/g and the tissue uptake at 48 h [16] was 5.11 ± 0.63 %ID/g. For the same molecule, the tissue uptake at 4 h [17] was 0.07 ± 0.01 %ID/g, the tissue uptake at 24 h [17] was 0.05 ± 0.01 %ID/g and the tissue uptake at 48 h [17] was 0.05 %ID/g. It also gave a tissue uptake at 4 h [18] of 46.6 ± 2.2 %ID/g, a tissue uptake at 24 h [18] of 23 ± 4.32 %ID/g and a tissue uptake at 48 h [18] of 7.85 ± 0.94 %ID/g. For the same molecule, the tissue uptake at 4 h [19] was 0.81 ± 0.06 %ID/g, the tissue uptake at 24 h [19] was 0.56 ± 0.07 %ID/g and the tissue uptake at 48 h [19] was 0.4 ± 0.03 %ID/g. It also gave a tissue uptake at 4 h [20] of 14.6 ± 1.85 %ID/g, a tissue uptake at 24 h [20] of 8.03 ± 1.43 %ID/g and a tissue uptake at 48 h [20] of 3.27 ± 0.34 %ID/g.
